Laboratory results: the supplement of paper PMC10567573
± gives the standard deviation.

Experiment: protein stability index of a GFP-peptide fusion (GPS, HEK-293T) (PSI 1-6); higher = more stable
[1] = treatment: DMSO, c terminus: a fixed tail appended
[2] = treatment: MLN4924 1 uM, 8 h, c terminus: a fixed tail appended
[3] = treatment: DMSO, c terminus: native
[4] = treatment: MLN4924 1 uM, 8 h, c terminus: native
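Further: 24-mer peptide tiles fused after GFP, lentivirally expressed, FACS-sorted into six equal bins by GFP/DsRed ratio, decoded by Illumina sequencing, PSI is the read-weighted mean bin number.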

Row | Sequence | protein stability index [1] | protein stability index [2] | protein stability index [3] | protein stability index [4]
1 | TSFQWVTKWVDYSNKYGFGYQLSD [PLK2] | 2.06 ± 0.57 | 2.08 ± 0.31 |  | 
2 | MARVAWGLLWLLLGSAGAQYEKYS [P3H4] | 3.18 ± 0.83 | 3.16 ± 0.48 |  | 
3 | CPHTPEFSVTGGTEEKSSLLMSCL [RPAIN] | 3.38 ± 0.22 | 3.49 ± 0.074 |  | 
4 | KVPRPDALDNESWGFVHPRLLSVP [RETREG3] | 2.91 ± 0.13 | 2.74 ± 0.081 |  | 
5 | LLLLDLLALYTPVGAAGSARQELL [ANKRD9] | 2.89 ± 0.38 | 2.88 ± 0.27 |  | 
6 | RRKCGQYWPLEKDSRIRFGFLTVT [PTPN9] | 2.3 ± 0.69 | 2.16 ± 0.47 |  | 
7 | NPYHQPYISRKYFATRPGAIETAM [TPRG1] | 2.22 ± 0.18 | 2.52 ± 0.25 |  | 
8 | RKVKSTITLDGGVLVHVQKWDGKS [FABP4] | 3 ± 0.23 | 3.15 ± 0.52 |  | 
9 | RDSLTQPDEEPMHYGNIMYDRRVI [RSPH3] | 3.62 ± 0.45 | 3.8 ± 0.23 |  | 
10 | EEEERDQALQAKASLTIPLVPETE [YJU2B] | 5.42 ± 0.16 | 5.5 ± 0.12 |  | 
11 | TLKKFKGDLAYRRQEYQKALQEYS [C8orf76] | 2.82 ± 0.29 | 2.79 ± 0.31 |  | 
12 | NPQRQGLLKTPWRAASAMQFFTKG [GCH1] | 2.89 ± 0.29 | 2.76 ± 0.21 |  | 
13 | IKSHSSLPPNNSYADFERFSKVLE [DAPK3] | 2.81 ± 0.22 | 2.96 ± 0.39 |  | 
14 | RQTKKMFCDMDKSLLCLLCSNSQE [TRIM43] | 2.44 ± 0.15 | 2.86 ± 0.21 |  | 
15 | FLMGRVLYFHHYFPAMLFSSMLTG [POMT2] | 3.35 ± 0.21 | 3.37 ± 0.43 |  | 
16 | LPQTPHLEEDLKEVLRSEAGIELI [MYBL2] | 4.2 ± 0.44 | 4.37 ± 0.17 |  | 
17 | RPPGPAGTEQSRGLGHGSTSRGGP [CPOX] | 4.794 ± 0.018 | 4.92 ± 0.33 |  | 
18 | DRGLRGFPKNRVLEGVIDRYQQSK [TRIM9] | 3.98 ± 0.35 | 4.01 ± 0.29 |  | 
19 | EESGAQLLLEMLTFNPHKRISAFR [CDK4] | 2.21 ± 0.15 | 2.23 ± 0.18 |  | 
20 | VRDGPFGFSPIIGRFCGQQNPPVI [NETO1] | 2.27 ± 0.21 | 2.25 ± 0.19 |  | 
21 | NDADKAINTLNGLKLQTKTIKVSY [ELAVL3] | 2.96 ± 0.23 | 3.11 ± 0.25 |  | 
22 | PPRGPLAKHRLVPPAQGRVSRRLS [TRIM9] | 4.21 ± 0.27 | 4.16 ± 0.49 |  | 
23 | HETRLVEVDSGRQIEYEYKLAQAL [LMNB1] | 3.81 ± 0.044 | 3.96 ± 0.29 |  | 

Row | Sequence | protein stability index [1] | protein stability index [2] | protein stability index [3] | protein stability index [4]
24 | LVCTADGDIHLSPEEPAASTDPNI [TAF7L] | 4.85 ± 0.2 | 4.89 ± 0.22 |  | 
25 | SYNITVTATDGGSPPLSTEAHFML [PCDHGA10] | 2.03 ± 0.36 | 2.09 ± 0.4 |  | 
26 | ALQEYSSISEKLSSTNFAMKRDVQ [C8orf76] | 3.26 ± 0.18 | 3.48 ± 0.43 |  | 
27 | NKLPEGVPQPARMPYISDKHPRQT [KLHL20] | 4.69 ± 0.12 | 4.77 ± 0.15 |  | 
28 | IQVLPKLSSSIIHEIDSILGNKPY [KCNAB2] | 1.98 ± 0.27 | 2.28 ± 0.27 |  | 
29 | EQVRFLMKSYSFLREAVPGILRAR [SOAT2] | 1.85 ± 0.62 | 2.1 ± 0.51 |  | 
30 | WERKEGGGGISCVLQDGCVFEKAG [CPOX] | 3.82 ± 0.12 | 3.84 ± 0.24 |  | 
31 | KDKEYAEIIRKQVSATKAEAEKDG [UBE2R2] | 5.39 ± 0.29 | 5.38 ± 0.21 |  | 
32 | KRESFLKYKCLLQQLYYTEADYED [IQUB] | 2.2 ± 0.31 | 2.49 ± 0.3 |  | 
33 | VVAYLALAALSATISFRIYKSVLQ [RTN1] | 2.7 ± 0.66 | 2.87 ± 0.43 |  | 
34 | MSVAIRKRSWEEHVTHWMGQPFNS [DLC1] | 2.41 ± 0.65 | 2.43 ± 0.18 |  | 
35 | YQTEQSLRLLVESDINSIRRILDE [KRT34] | 2.85 ± 0.18 | 2.97 ± 0.42 |  | 
36 | KPILLHQVEALAAAGVDHVILAVS [GMPPB] | 2.55 ± 0.48 | 2.61 ± 0.5 |  | 
37 | RQKDLKFLSEEEYWKLQIFFTNVI [CCNC] | 2.57 ± 0.25 | 2.47 ± 0.83 |  | 
38 | LNRALSNLSSRWKNWWVRGILTLA [CDS2] | 3.17 ± 0.31 | 3.1 ± 0.49 |  | 
39 | LYVLKGGYKEFFMKCQSYCEPPSY [CDC25A] | 2.62 ± 0.68 | 2.65 ± 0.27 |  | 
40 | KEISRKRRSIRYGREVELKPYIAA [PTPRD] | 3.27 ± 0.17 | 3.65 ± 0.44 |  | 
41 | YTEQELKPLTLEALGHLGNDDSAD [DLC1] | 5.43 ± 0.12 | 5.43 ± 0.16 |  | 
42 | MAERLEDSVLKGMQAASSKMVSAE [SDE2] | 4.54 ± 0.36 | 4.55 ± 0.24 |  | 
43 | FRFDKPKKSRSPASAEAPGDSGER [ZNF511] | 4.95 ± 0.11 | 5.11 ± 0.38 |  | 
44 | SNATATPSVRKKAGSFSRRLIKRF [C2CD2L] | 3.47 ± 0.18 | 3.61 ± 0.18 |  | 
45 | VAREDVRESCPPLGLETLKITDFQ [CPXM2] | 3.96 ± 0.48 | 4.09 ± 0.33 |  | 
46 | LGVGLLTFASLETVGIYFGLVYRI [TMEM40] | 3.17 ± 0.25 | 3.29 ± 0.22 |  | 

Row | Sequence | protein stability index [1] | protein stability index [2] | protein stability index [3] | protein stability index [4]
47 | AVATIVKPLSAIPQPTITKQEVI [HNF4A] |  |  | 2.43 ± 0.28 | 2.37 ± 0.19
48 | YSDKNAKLTKESYPVVVAESMYGD [TENT5D] | 4.39 ± 0.054 | 4.43 ± 0.22 |  | 
49 | IPPKSVNPTCMCCQATSSTACHIQ [FAM219A] | 3.7 ± 0.17 | 3.82 ± 0.26 |  | 
50 | PYPVLFHNIFLLGGSSTSERCLLN [NLN] | 3.23 ± 1.5 | 2.59 ± 0.8 |  | 
51 | TPHMLLDLSDLLQVDSLRPASFPT [BRF1] | 2.28 ± 0.2 | 2.43 ± 0.2 |  | 
52 | SSEKKRQSSADGSQPPKKKPKTTN [RBBP5] | 5.24 ± 0.37 | 5.28 ± 0.3 |  | 
53 | VLEWGAEGVAGKSGLEKEVQRLTS [FCHSD1] | 4.1 ± 0.16 | 4.09 ± 0.22 |  | 
54 | LAAVTPHDFIEHILRKLPQQREKL [CCND2] | 2.53 ± 0.17 | 2.74 ± 0.23 |  | 
55 | VNMVDVAKALNRPPTYPTKYFGCE [EIF5] | 2.56 ± 0.19 | 2.45 ± 0.18 |  | 
56 | ETLQPSVWFGGREHVLMFAKLALY [TMEM175] | 2.52 ± 0.46 | 2.44 ± 0.43 |  | 
57 | CSCEWMAAMFGGSFVESANSEVYL [RHOBTB1] | 2.96 ± 0.62 | 2.85 ± 0.89 |  | 
58 | HIFNTLRSHLIDKGMLTSTTEDE [CDS2] |  |  | 2.71 ± 0.042 | 3.23 ± 0.39
59 | QAKILQCYRENTHQTLKCSALATQ [CHCHD3] | 3.21 ± 0.31 | 3.33 ± 0.26 |  | 
60 | LPILTWPVLQSRTGLVYDQNMMNH [HDAC6] | 2.25 ± 0.23 | 2.3 ± 0.33 |  | 
61 | LVNHVNIRLQAELEEGENPVPAFQ [SMG5] | 4.04 ± 0.091 | 4.07 ± 0.17 |  | 
62 | CTLRQKLIFSPCSDCEEEEEEEEE [WEE1] | 5.04 ± 0.27 | 5 ± 0.26 |  | 
63 | VADRWYSEIKNYNFQQPGFTSGTG [GLIPR2] | 2.61 ± 0.097 | 2.93 ± 0.34 |  | 
64 | EDGEDFNLGDALDSSNSMQTIQKT [KRT18] | 5.44 ± 0.29 | 5.41 ± 0.32 |  | 
65 | DPAYIAVLVLIFNAAKTCPTMPAL [INTS4] | 3.12 ± 0.56 | 3.09 ± 0.47 |  | 
66 | EIVNYEPLGLEADMWSIGVITYIL [DAPK3] | 2.35 ± 0.48 | 1.98 ± 0.27 |  | 
67 | FRSRSRLTHLSLSRRASESSLSSE [CDC25B] | 3.84 ± 0.22 | 3.99 ± 0.099 |  | 
68 | RREQAAAAPFPSPAPASPAISVVG [TFE3] | 4.22 ± 0.35 | 4.24 ± 0.18 |  | 
69 | ASQPVKKQQENATSCSLELIGDLI [WDR41] | 3.47 ± 0.27 | 3.45 ± 0.38 |  | 

Row | Sequence | protein stability index [1] | protein stability index [2] | protein stability index [3] | protein stability index [4]
70 | VAVDFTWEEWQFLSPAQKDLYRDV [ZNF649] | 2.54 ± 0.73 | 2.64 ± 0.22 |  | 
71 | ENVLAALEGLNLSILKAMGKTKKD [NECAB1] | 3.12 ± 0.12 | 3.31 ± 0.18 |  | 
72 | HTAKCEKLQKEKEELERRFEDEVK [MTUS2] | 5.57 ± 0.26 | 5.6 ± 0.07 |  | 
73 | SVDLMLGLPAQQVGPWLGQLQELL [RSAD1] | 2.38 ± 0.1 | 2.38 ± 0.45 |  | 
74 | LQDVRVNQSRCEMKTFVSPEAISP [TRIM15] | 4.01 ± 0.17 | 4.09 ± 0.29 |  | 
75 | KVVKGHRPELPPVCRARPRACSHL [RIPK4] | 3.19 ± 0.36 | 3.04 ± 0.46 |  | 
76 | LQGSLFGLAGLLPASYTAPIMSGQ [SLC29A1] | 2.44 ± 0.28 | 2.27 ± 0.3 |  | 
77 | EAACNDVDRWPAPVPGKTLHLPIM [DENND6A] | 3.52 ± 0.35 | 3.19 ± 0.37 |  | 
78 | VDLDPTDGKLFPSDGFRDCKKGDP [ELF3] | 5.31 ± 0.1 | 5.2 ± 0.25 |  | 
79 | AAAFPTEDSRTSKESMSEADRAQK [EHMT1] | 5.59 ± 0.25 | 5.514 ± 0.053 |  | 
80 | TPPSSRRVWSPPRVHKVEMGFGGG [ZBTB22] | 3.22 ± 0.4 | 3.33 ± 0.081 |  | 
81 | GRHYWEVEVGDKTHWAVGVCRDSV [TRIM39] | 2.48 ± 0.41 | 2.42 ± 0.22 |  | 
82 | KGHERTVQYLQHLGTENLHLIFSY [VPS39] | 2.39 ± 0.46 | 2.59 ± 0.67 |  | 
83 | QYEVSNFARNGALSTHNWTYWQCG [RSAD1] | 2.43 ± 0.25 | 2.05 ± 0.23 |  | 
84 | PAASNSSDLFDLMGSSQATMTSSQ [CLINT1] | 5.06 ± 0.16 | 5.02 ± 0.17 |  | 
85 | QRTAKGKPVLAKDSSNPYPNFNFN [AASDHPPT] | 3.43 ± 0.45 | 3.74 ± 0.15 |  | 
86 | LEEAKQPKNDNVVIPECAHGGLYK [SMOC2] | 5.31 ± 0.14 | 5.146 ± 0.035 |  | 
87 | LVQLDDYRFASAGDDGIVVVWNAQ [WDR41] | 2.64 ± 0.28 | 2.87 ± 0.31 |  | 
88 | KSYPSSELRNMCDEHIASEEPAEK [CLCN6] | 5.53 ± 0.2 | 5.44 ± 0.27 |  | 
89 | ADDPTSGFSSIPDAFWWAVVTMTT [KCNA3] | 2.94 ± 0.92 | 2.6 ± 0.4 |  | 
